From publication PMC5714250 come the findings set out here.

One data set concerns the target T1, APUM23 85-655 (WT) (Arabidopsis thaliana, UniProt Q9C552 85-655).
T1 sequence: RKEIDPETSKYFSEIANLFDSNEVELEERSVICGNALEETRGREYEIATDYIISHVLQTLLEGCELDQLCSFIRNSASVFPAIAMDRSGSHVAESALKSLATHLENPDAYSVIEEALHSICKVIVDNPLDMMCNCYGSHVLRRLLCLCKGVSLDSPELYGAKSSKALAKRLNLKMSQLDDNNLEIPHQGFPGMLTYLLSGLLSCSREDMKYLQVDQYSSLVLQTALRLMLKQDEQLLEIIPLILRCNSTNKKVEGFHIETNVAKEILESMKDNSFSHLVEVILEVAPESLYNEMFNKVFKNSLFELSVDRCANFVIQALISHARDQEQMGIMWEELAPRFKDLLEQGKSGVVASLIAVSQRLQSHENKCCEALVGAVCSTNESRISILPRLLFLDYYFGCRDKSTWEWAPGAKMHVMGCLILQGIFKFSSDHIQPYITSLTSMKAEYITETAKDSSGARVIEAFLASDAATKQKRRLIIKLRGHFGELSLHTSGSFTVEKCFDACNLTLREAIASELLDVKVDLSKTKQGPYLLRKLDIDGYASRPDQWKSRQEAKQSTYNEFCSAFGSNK
Kind of data set: X-ray crystallography.

Another data set has as its target T2, APUM23Delete (Arabidopsis thaliana, UniProt Q9C552 85-655, del235-270).
T2 sequence: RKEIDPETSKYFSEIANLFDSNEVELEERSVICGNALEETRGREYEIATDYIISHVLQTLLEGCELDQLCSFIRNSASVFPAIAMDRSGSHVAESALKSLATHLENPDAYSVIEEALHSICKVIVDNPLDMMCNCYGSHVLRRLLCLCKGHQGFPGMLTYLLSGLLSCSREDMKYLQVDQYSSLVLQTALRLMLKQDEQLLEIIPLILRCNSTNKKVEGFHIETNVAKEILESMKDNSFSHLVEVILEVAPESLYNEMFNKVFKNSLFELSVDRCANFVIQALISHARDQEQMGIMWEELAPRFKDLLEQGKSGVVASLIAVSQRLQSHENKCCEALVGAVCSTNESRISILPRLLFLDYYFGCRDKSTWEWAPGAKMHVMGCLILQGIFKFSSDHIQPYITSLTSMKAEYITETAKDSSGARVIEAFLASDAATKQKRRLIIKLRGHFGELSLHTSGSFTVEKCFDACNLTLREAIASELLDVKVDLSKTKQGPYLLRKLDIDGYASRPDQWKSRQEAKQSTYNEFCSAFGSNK
Kind of data set: X-ray crystallography.

B1: 11-mer A+3G RNA (ssRNA)
RNA: GGAGUUGACGG
B1: the binding result with APUM23 85-655 (WT) is given as “binds”.

B2: 11-mer WT RNA (18S rRNA 1141-1151) (ssRNA)
RNA: GGAAUUGACGG
As to B2, in the data set with APUM23Delete, the binding result is reported as “binds”.
